Stoichiometry N data for 1 substance are collected here from article PMC3799832.

The target of the assay is full-length talin1 purified from turkey gizzard (turkey). In words: electron microscopy single-particle 3D reconstruction.

By stoichiometry N is commonly meant the number of molecules, sites or subunits per partner or assembly. On to “full-length talin1 purified from turkey gizzard”, for which the stoichiometry N was 2.
